From US20060026702A1, “Phosphoinositide 3-kinase mediated inhibition of GPCRs” (DUKE UNIVERSITY, priority 2002, published 2006)

T1: βARK1 (Bos taurus, UniProt P21146)
T1 construct: gift from Dr. Robert Lefkowitz
T1 sequence (P21146 1-689): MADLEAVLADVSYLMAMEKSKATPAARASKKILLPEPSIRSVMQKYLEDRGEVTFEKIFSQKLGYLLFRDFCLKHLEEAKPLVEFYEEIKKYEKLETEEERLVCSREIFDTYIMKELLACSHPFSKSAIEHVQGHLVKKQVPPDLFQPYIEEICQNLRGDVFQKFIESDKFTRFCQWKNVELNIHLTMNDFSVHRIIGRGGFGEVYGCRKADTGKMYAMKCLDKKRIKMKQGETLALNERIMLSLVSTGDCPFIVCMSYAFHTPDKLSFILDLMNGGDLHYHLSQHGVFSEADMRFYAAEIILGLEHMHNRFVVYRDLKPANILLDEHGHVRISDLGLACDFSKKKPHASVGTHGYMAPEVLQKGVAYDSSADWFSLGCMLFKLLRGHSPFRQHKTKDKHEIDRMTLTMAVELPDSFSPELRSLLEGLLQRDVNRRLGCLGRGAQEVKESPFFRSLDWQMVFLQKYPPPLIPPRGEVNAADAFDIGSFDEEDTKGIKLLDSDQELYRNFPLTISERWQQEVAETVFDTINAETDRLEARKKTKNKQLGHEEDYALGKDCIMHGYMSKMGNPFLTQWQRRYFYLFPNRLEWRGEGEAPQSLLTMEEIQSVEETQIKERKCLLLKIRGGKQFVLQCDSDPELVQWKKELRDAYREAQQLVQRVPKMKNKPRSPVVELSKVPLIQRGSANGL

T2: βARK1/PI3K interaction (Bos taurus, UniProt P21146)
T2 construct: recognizes both full length βARK1 and the βARKct; expressed in transfected cells; host or cells: HEK 293
T2 sequence (P21146 1-689): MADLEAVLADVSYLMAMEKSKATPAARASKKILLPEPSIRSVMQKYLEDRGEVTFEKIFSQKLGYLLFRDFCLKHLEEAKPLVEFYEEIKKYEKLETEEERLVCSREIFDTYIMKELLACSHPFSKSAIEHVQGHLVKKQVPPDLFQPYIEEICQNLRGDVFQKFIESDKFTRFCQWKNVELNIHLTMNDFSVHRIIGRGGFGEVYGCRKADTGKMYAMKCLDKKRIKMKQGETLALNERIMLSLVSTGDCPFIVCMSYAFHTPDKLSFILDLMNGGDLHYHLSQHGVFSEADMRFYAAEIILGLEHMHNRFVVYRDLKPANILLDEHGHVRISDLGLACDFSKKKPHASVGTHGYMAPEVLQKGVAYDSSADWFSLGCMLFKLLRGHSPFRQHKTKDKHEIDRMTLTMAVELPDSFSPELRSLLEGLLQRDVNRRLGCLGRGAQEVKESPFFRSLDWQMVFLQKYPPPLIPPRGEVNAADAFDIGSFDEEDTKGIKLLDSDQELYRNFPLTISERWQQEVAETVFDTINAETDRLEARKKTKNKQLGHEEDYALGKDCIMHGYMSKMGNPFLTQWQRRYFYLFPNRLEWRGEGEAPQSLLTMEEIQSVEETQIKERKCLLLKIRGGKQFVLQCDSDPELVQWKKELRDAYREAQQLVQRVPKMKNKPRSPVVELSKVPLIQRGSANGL


Legend:
βARK1 = target: T1, βARK1; experiment: Co-immunoprecipitation and GST pull-down with purified βARK1; assay type: binding; details: immunoprecipitated FLAG-HEAT or PI3KΔHEAT-HA
Experimental: GST Fusion Protein Expression and Pull-down Experiments—Plasmid DNAs were transformed in Escherichia coli BL21 cells. Overnight cultures were grown in LB medium supplemented with ampicillin (100 μg/ml), diluted to an A600 of 0.2 in the same medium and grown for another 1 hr at 37° C. Cultured cells were then induced with 0.1 mM isopropyl-1-thio-β-D-galactopyranoside for 2 hr. Cell were then pelleted, washed once with 1× phosphate-buffered saline and resuspended in 1× phosphate-buffered saline containing 1 mM phenylmethylsulfonyl fluoride, 2 mg/ml lysozyme and incubated for 15 min on ice. Cells were lysed by adding Triton X-100 1%. Solublized cells were incubated with DNase (300 units) for 15 min on ice and centrifuged at 13,000 rpm for 10 min.
Glutathione-Sepharose beads were added to the supernatant and gently agitated at 4° C. for 2 hr. Beads were washed three times with ice cold 1×PBS containing 1% Triton X-100 followed by three washes with cold PBS without detergent. Protein concentration was determined using a DC protein assay kit (Bio Rad), and the integrity of the fusion protein was analyzed by SDS-polyacrylamide gel electrophoresis and Coomassie staining.
The beads were spun and washed three times with binding buffer followed by three washes with binding buffer without detergent. The beads were resuspended in SDS gel loading buffer and resolved by gel electrophoresis, immunblotting and detection was carried out described later.
FLAG-HEAT and PI3KΔHEAT proteins were immunoprecipitated from cell extracts using monoclonal FLAG and HA antibodies respectively, fractionated by SDS-PAGE and analyzed by immunoblotting with βARK1 monoclonal antibody. […] Levels of expression of HEAT and PI3KΔHEAT proteins were similar (FIG. 8B, lower panel).
To investigate whether there was a direct physical interaction between the HEAT domain of PI3K and βARK1, GST-HEAT fusion protein containing 535-732 amino acid residues of PI3Kγ was produced, which including the entire HEAT domain and flanking upstream 10 amino acids and downstream 7 amino acids. […]

βARK1/PI3K interaction = target: T2, βARK1/PI3K interaction; experiment: βARK1 associated PI3K activity in HEK 293 cells co-transfected with HEAT or PI3KΔHEAT; assay type: cell-based; details: 4 μg cDNA co-transfected with βARK1
Experimental: The present inventors determined that overexpression of the 197 amino acid HEAT domain of PI3K competed for endogenous PI3K binding to βARK1 in living cells. HEK 293 cells were co-transfected with plasmids containing the βARK1 cDNA (2 μg) and increasing concentrations of the HEAT domain cDNA (ranging from 0 to 6 μg). […] The maximal reduction of βARK1 associated PI3K activity occurred when cells were co-transfected with 4 μg of HEAT cDNA (FIG. 9B). Summary results of n=5 experiments. *, p<0.0005. The data was normalized to βARK1 associated PI3K activity in cells transfected with βARK1 only. Furthermore, FLAG tagged HEAT protein co-immunoprecipitated with βARK1 monoclonal antibodies in the co-transfected HEK 293 cells.
The absence of the HEAT domain in an otherwise intact PI3K molecule affected the association of βARK1 with endogenous PI3K in cells. HEK 293 cells were co-transfected with plasmids containing cDNAs for βARK1 (2 μg), βARK1 plus HEAT (4 μg), and βARK1 plus PI3KΔHEAT (4 μg). Cell lysates were immunoprecipitated with a βARK1 monoclonal antibody and assayed for the associated PI3K activity. Expression of PI3KΔHEAT had no effect on the endogenous βARK1/PI3K interaction, whereas overexpression of HEAT abolished this interaction (FIGS. 9C and 9D). […] The data was normalized to βARK1 associated PI3K activity in cells transfected with βARK1 only.
Cytosolic and membrane fractions were prepared and analyzed for βARK1 associated PI3K activity. […] Membrane fractions were prepared from the HEK293 cells co-transfected with the βARK1 (2 μg), βARK1 and HEAT domain (4 μg) containing plasmids.

[1] = Catalytic (lipid kinase) activity of PI3K mutant; assay type: biochemical; details: compared with wild type PI3K
Excerpt: PI3KΔHEAT was constructed using 2 PCR reactions that selectively amplified regions of PI3K upstream and downstream from the HEAT domain (FIG. 8a). The region of PI3K upstream from HEAT was amplified using the forward primer (5′-[…]-3′) containing a BamHI site and Kozak consensus sequence, and the reverse primer (5′-[…]-3′) containing a SacI site. The region of PI3K downstream of the HEAT domain was amplified using the forward primer (5′-[…]-3′) containing a SacI site and the reverse primer (5′-[…]-3′) containing a BamHI site and a consensus stop codon. The upstream and downstream regions of PI3K were separately subcloned in the zero-blunt TOPO vector and sequence was verified by dideoxy sequencing. Following digestion with the restriction enzymes BamHI/SacI, a three fragment ligation was carried with the mammalian expression vector pRK5, to generate the plasmid containing the PI3KΔHEAT cDNA (FIG. 8a). […] The plasmids containing cDNAs encoding βARK1, FLAG-β2AR, HA-β2AR and p110γ have been described previously.

PI3K [2] = target: T3, PI3K (Homo sapiens, UniProt P48736, DEL30-30/Q459R); experiment: βARK1 associated PI3K activity (lipid kinase assay) in transfected NIH-3T3 cells; assay type: cell-based, Mouse; details: co-transfected βARKct cDNA
T3 construct: expressed in transfected cells; host or cells: NIH-3T3
Experimental: (§1) Cell Culture—Mouse NIH-3T3 and HEK293 cells were maintained in either Iscoves modified Dulbecco's medium or minimal essential medium (MEM) supplemented with 10% fetal bovine serum and 1:100 penicillin-streptomycin (10,000 U/ml) at 37° C. Cells were seeded at a density of ˜1-3×10^5 cells/35 mm^2 dish and at 70-80% confluence were transiently transfected using the transfection reagent FUGENE6 (ROCHE) or calcium phosphate precipitation. Cells were harvested 24 hours after transfection, re-plated in triplicate, allowed to grow overnight and serum starved for 2-4 hours before agonist stimulation.
(§2) Cytosolic and Membrane Fractionation—Cell monolayers were scraped in 1 ml of buffer containing 25 mM Tris-HCl (pH 7.5), 5 mM EDTA, 5 mM EGTA, 1 mM phenylmethylsulfonyl fluoride, 2 μg/ml each of leupeptin and aprotinin and disrupted further by using Dounce homogenizer. Intact cells and nuclei were removed by-centrifugation at 1,000×g for 5 min. The collected supernatant was further subject to a centrifugation at 38,000×g for 25 min. The pellet was resuspended in lysis buffer (1% Nonidet P-40, 10% glycerol, 137 mM NaCl, 20 mM Tris-Cl (ph 7.4), 1 mM phenylmethylsulfonyl fluoride, 20 mM NaF, 1 mM sodium pyrophosphate, 1 mM sodium orthovanadate and 2 μg/ml each of aprotinin and leupeptin) and used as membrane fraction and the supernatant was diluted in lysis buffer and used as the cytosolic fraction.
(§3) Lipid Kinase Assays—Cells were lysed in lysis buffer and 2 mg cytosolic extract was used for immunoprecipitation with either the C5/1 monoclonal antibody directed against βARK1, the anti-FLAG M2 monoclonal antibody (Sigma) or antibodies to p110γ, or p110β (Santa Cruz Biotechnology) and protein G-agarose. Sedimented beads were then washed once with 1 ml of lysis buffer, thrice with 1 ml of phosphate-buffered saline (1× phosphate-buffered saline, 1% NP-40 and 100 μM sodium orthovanadate), thrice with 1 ml of Tris/LiCl (100 mM Tris-HCl (pH 7.4), 5 mM LiCl and 100 μM sodium orthovanadate) and twice with TNE (10 mM Tris Cl (pH 7.4), 150 mM NaCl, 5 mM EDTA and 100 μM sodium orthovanadate). Samples were then resuspended in 50 ml of TNE and 10 μl of 100 mM MgCl2 was added to each sample. The substrate, phosphatidylinositol (PI, Avanti), was prepared by drying 50 μl of the 10 mg/ml stock (PI in chloroform) in an eppendorf tube with a stream of air and adding 250 μl of TE (10 mM Tris Cl (pH 7.4) and 1 mM EDTA). The PI was then suspended by sonication in an ice bath for 3 minutes. 10 p, of the PI solution and 11 μl of ATP solution (440 μM cold ATP and 1 μCi/μl of [γ-32P]ATP) were added to each sample. […] Autoradiography of dried plates was used to detect signals, and PIP was quantified by phosphorimaging. […] Values are expressed as fold increase/decrease relative to wild-type/control.

PI3K [3] = target: T4, PI3K (Homo sapiens, UniProt P48736); experiment: as above; assay type: cell-based, Mouse; details: co-transfected βARKct cDNA; isoproterenol 2 min
T4 construct: expressed in transfected cells; host or cells: NIH-3T3
T4 sequence (P48736 with tags, fused parts or gaps DEL30-30/Q459R): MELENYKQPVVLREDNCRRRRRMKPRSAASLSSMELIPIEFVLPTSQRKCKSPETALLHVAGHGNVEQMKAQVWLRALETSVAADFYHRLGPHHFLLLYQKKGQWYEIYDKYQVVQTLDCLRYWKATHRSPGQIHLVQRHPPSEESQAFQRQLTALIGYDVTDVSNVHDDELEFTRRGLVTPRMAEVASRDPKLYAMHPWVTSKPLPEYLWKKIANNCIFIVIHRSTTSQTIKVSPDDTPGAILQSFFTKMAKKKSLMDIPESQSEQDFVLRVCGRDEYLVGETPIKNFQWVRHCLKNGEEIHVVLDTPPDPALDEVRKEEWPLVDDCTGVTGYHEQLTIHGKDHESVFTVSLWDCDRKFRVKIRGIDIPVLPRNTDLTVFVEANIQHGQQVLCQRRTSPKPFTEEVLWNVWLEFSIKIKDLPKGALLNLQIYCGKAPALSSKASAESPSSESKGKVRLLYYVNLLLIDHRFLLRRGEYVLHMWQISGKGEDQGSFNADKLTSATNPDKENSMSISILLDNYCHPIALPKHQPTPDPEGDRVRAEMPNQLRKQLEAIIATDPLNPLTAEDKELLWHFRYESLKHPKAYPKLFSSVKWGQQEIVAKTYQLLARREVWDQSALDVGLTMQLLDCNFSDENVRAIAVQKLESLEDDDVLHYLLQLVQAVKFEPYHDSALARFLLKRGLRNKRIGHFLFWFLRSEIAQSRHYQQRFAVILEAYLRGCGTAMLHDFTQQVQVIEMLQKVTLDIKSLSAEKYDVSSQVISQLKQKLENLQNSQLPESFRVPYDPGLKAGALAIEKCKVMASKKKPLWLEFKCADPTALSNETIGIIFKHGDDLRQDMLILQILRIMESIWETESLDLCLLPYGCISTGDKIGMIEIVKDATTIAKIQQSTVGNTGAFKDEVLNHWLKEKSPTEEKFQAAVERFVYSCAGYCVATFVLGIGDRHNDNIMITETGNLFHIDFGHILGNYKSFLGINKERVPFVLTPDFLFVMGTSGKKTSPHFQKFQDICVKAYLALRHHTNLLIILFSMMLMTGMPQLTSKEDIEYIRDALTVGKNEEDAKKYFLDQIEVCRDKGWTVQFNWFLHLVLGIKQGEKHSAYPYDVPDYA
Experimental: as §1, §2, §3

T3 sequence (P48736 with tags, fused parts or gaps DEL30-30/Q459R): as above

association with purified βARK1 (immune complexes from HEK 293 extracts) (βARK1)	Molecule	endogenous βARK1/PI3K interaction (βARK1/PI3K interaction)	catalytic activity [1]	βARK1 associated PI3K activity in the cytosolic fraction (PI3K [2])	agonist-dependent translocation of βARK1 associated PI3K activity to the membrane (PI3K [3])
not	PI3KΔHEAT: HA tagged PI3K mutant with a deletion of the HEAT domain (protein) MELENYKQPVVLREDNCRRRRRMKPRSAASLSSMELIPIEFVLPTSQRKCKSPETALLHVAGHGNVEQMKAQVWLRALETSVAADFYHRLGPHHFLLLYQKKGQWYEIYDKYQVVQTLDCLRYWKATHRSPGQIHLVQRHPPSEESQAFQRQLTALIGYDVTDVSNVHDDELEFTRRGLVTPRMAEVASRDPKLYAMHPWVTSKPLPEYLWKKIANNCIFIVIHRSTTSQTIKVSPDDTPGAILQSFFTKMAKKKSLMDIPESQSEQDFVLRVCGRDEYLVGETPIKNFQWVRHCLKNGEEIHVVLDTPPDPALDEVRKEEWPLVDDCTGVTGYHEQLTIHGKDHESVFTVSLWDCDRKFRVKIRGIDIPVLPRNTDLTVFVEANIQHGQQVLCQRRTSPKPFTEEVLWNVWLEFSIKIKDLPKGALLNLQIYCGKAPALSSKASAESPSSESKGKVRLLYYVNLLLIDHRFLLRRGEYVLHMWQISGKGEDQGSFNADKLTSATNPDKENSMSISILLDNYCHPIALPKHQPTPDPEGDRGTAMLHDFTQQVQVIEMLQKVTLDIKSLSAEKYDVSSQVISQLKQKLENLQNSQLPESFRVPYDPGLKAGALAIEKCKVMASKKKPLWLEFKCADPTALSNETIGIIFKHGDDLRQDMLILQILRIMESIWETESLDLCLLPYGCISTGDKIGMIEIVKDATTIAKIQQSTVGNTGAFKDEVLNHWLKEKSPTEEKFQAAVERFVYSCAGYCVATFVLGIGDRHNDNIMITETGNLFHIDFGHILGNYKSFLGINKERVPFVLTPDFLFVMGTSGKKTSPHFQKFQDICVKAYLALRHHTNLLIILFSMMLMTGMPQLTSKEDIEYIRDALTVGKNEEDAKKYFLDQIEVCRDKGWTVQFNWFLHLVLGIKQGEKHSAYPYDVPDYA	no effect	indistinguishable from wild type PI3K		
	βARKct: carboxyl terminus of βARK1 that attenuates the Gβγ dependent signaling (protein) GIKLLDSDQELYRNFPLTISERWQQEVAETVFDTINAETDRLEARKKTKNKQLGHEEDYALGKDCIMHGYMSKMGNPFLTQWQRRYFYLFPNRLEWRGEGEAPQSLLTMEEIQSVEETQIKERKCLLLKIRGGKQFVLQCDSDPELVQWKKELRDAYREAQQLVQRVPKMKNKPRSPVVELSKVPLIQRGSANGL			loss	abolished
